Reference: patent US20220289850 (published 2022)

Molecular target: T1, cynomolgus integrin avb8 (cynomolgus)
T1 chain 1: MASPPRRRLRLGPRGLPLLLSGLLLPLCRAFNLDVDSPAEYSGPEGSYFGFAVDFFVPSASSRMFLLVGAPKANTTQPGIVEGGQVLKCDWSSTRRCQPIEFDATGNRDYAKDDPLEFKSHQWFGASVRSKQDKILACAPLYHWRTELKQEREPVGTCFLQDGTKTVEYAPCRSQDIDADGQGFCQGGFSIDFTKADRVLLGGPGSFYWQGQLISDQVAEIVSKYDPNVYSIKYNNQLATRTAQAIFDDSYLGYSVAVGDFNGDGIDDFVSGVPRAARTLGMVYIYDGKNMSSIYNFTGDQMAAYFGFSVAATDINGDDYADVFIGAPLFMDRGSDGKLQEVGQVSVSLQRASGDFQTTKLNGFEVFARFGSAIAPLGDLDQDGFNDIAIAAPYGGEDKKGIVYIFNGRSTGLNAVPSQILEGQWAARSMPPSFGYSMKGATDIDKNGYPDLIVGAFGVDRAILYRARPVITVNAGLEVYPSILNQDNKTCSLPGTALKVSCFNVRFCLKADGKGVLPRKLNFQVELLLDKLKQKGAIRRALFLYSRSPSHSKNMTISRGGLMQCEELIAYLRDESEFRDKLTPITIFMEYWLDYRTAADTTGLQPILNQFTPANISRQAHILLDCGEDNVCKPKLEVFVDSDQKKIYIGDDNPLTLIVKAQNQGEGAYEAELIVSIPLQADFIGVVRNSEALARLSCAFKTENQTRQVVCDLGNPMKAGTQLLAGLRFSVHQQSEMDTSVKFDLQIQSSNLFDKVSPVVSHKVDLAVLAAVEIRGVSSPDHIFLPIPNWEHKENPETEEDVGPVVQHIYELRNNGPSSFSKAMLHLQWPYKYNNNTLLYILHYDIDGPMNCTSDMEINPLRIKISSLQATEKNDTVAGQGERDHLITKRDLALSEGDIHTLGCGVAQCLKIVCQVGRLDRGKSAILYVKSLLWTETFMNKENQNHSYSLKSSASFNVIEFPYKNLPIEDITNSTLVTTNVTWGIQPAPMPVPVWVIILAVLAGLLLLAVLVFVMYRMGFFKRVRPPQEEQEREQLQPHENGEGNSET
T1 chain 2: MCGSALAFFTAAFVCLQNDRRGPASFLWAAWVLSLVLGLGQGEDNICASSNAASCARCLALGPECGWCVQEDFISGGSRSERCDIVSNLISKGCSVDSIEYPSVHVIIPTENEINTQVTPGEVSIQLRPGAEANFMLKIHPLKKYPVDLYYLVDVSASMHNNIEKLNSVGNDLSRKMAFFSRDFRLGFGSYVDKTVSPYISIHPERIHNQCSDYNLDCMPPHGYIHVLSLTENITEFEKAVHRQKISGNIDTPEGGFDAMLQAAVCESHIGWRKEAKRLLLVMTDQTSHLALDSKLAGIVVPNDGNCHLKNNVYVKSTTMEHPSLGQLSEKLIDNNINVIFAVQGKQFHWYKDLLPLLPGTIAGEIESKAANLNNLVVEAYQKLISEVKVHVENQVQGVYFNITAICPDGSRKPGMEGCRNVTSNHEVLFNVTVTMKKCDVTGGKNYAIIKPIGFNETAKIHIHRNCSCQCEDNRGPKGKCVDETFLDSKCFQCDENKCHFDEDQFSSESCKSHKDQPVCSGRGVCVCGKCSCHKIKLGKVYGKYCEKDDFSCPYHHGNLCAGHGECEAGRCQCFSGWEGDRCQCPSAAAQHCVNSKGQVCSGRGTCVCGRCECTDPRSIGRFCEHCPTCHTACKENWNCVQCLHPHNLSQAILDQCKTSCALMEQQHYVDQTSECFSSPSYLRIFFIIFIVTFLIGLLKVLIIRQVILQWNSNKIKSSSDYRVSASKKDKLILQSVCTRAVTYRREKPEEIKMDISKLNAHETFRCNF
Test: SPR

Kd: < 100 pM
B1: ADWA11 2.4 Fab (antibody, V domains shown)
VH: EVQLVESGGGLVQPGGSLRLSCAASGFNIKDYYMNWVRQAPGKGLEWVGWIDPDQGNTIYEPKFQGRFTISADTSKNSAYLQMNSLRAEDTAVYYCARRLLMDYWGQGTLVTVSS
VL: DIQMTQSPSSLSASVGDRVTITCRSTKSLSHFNGNTYLFWYQQKPGKAPKRLIYYMSSLASGVPSRFSGSGSGTDFTLTISSLQPEDFATYYCQQSLEYPFTFGGGTKVEIK
